The source of these data is patent publication US20040248198A1 (ST JUDE CHILDREN S RESEARCH HOSPITAL, published 2004).

B1: 41-55 (peptide)
peptide: AFVNMLLRLERILRR
modifications: not fully specified
notes: also called mouse p19Arf library peptide, residues 41-55
B2: 21-35 (peptide)
peptide: RVFLVKFVRSRRPRT
modifications: not fully specified
notes: also called mouse p19Arf library peptide, residues 21-35
B3: A1 peptide (human p14ARF 1-14, SEQ ID NO:26, MVRRFLVTLRIRRA) (peptide)
peptide: Ac-MVRRFLVTLRIRRA-NH2
notes: Synthetic peptide; also called human A1 (1-14)
B4: 6-20 (peptide)
peptide: LVTVRIQRAGRPLQE
modifications: not fully specified
notes: also called mouse p19Arf library peptide, residues 6-20
B5: 11-25 (peptide)
peptide: IQRAGRPLQERVFLV
modifications: not fully specified
notes: also called mouse p19Arf library peptide, residues 11-25
B6: 26-40 (peptide)
peptide: KFVRSRRPRTASCAL
modifications: not fully specified
notes: also called mouse p19Arf library peptide, residues 26-40
B7: H1 peptide (Hdm2 240-254, SEQ ID NO:27, SVSDQFSVEFEVESL) (peptide)
peptide: Ac-SVSDQFSVEFEVESL-NH2
notes: Synthetic peptide

One test addresses T1, His-tagged Hdm2 210-304 (human, UniProt Q00987 210-304).
T1 construct: not shown: thrombin-cleavable poly-His tag from pET28a
The test is described as follows: SPR (Biacore), His-tagged Hdm2 210-304 captured by anti-His antibody, mouse Arf peptide as analyte, reference cell subtracted. As for the experimental part: Surface Plasmon Resonance. Binding studies were performed using a Biacore 3000 surface plasmon resonance (SPR) instrument (Biacore, Inc.). A Tetra-His™ Antibody (Qiagen, Inc.; Cat. #34670) was covalently attached to a carboxymethylated gold surface (C-1 chip; Biacore, Inc.). The carboxymethyl groups on the surface were activated with N-ethyl-N-(3-dimethylaminopropyl) carbodiimide (EDC) and N-hydroxysuccinimide (NHS) and the antibody was attached at pH 7.4 in 20 mM sodium phosphate buffer, 150 mM NaCl (PBS). Reactive sites remaining on the surface were blocked by reaction with ethanolamine. The His-tagged ligand was attached to the antibody by injecting a […] solution of the ligand in 10 mM HEPES, 150 mM NaCl, pH 7.4 (HBS-N buffer, Biacore) at a flow rate of 10 μL/Min through the flow cell. A reference cell was prepared similarly except that no His-tagged ligand was added. Binding was measured by flowing the non-His-tagged analyte through the reference and ligand-containing flow cells in sequence. Prior to injection of ligands, the chip surfaces were equilibrated in HBS-N buffer. Changes in the SPR response due to solvent differences and the injection process were monitored by injection of HBS-N buffer alone. Regeneration of the chip surface to remove bound analyte and ligand was accomplished by two 100 μL injections of 10 mM glycine, pH 2.0 through both flow cells. Data reported is-the difference in SPR signal between the flow cell containing analyte and the reference cell. Duplicate injections were made and the SPR response values reported are the average of these two injections.
Two libraries of peptides 15 amino acids in length were synthesized based on the sequence of exon 1β of mouse p19^Arf and the entire sequence of human p14^Arf. The sequence for the first peptide in each library corresponded to the first 15 amino acids of the protein sequences. […] This approach yielded two libraries of overlapping peptides spanning mouse p19^Arf residues 1-64 and human p14^Arf residues 1-132. The ability of these peptides to bind Hdm2 fragments was determined using the surface plasmon resonance (SPR) technique with a Biacore 3000 instrument.

Test [1] concerns the target B7. Description: CD and 1H NMR titration. On the procedure: (§1) CD spectra were recorded with an Aviv 62DS instrument in 5 mM potassium phosphate (pH 7.0) using a 1 mm cuvette. In FIG. 1A, A1 was 4.5 μM, molar ratios were: 1:0.0, 1:0.1, 1:0.6, 1:0.9, & 1:1.3. In FIG. 1B, H1 was 2.5 μM, molar ratios were: 1:0.2, 1:0.7, 1:1.0, & 1:1.3. Data was collected for 3 seconds in 1 nm steps and 10 scans were averaged for each spectrum. The appearance of a minimum in the CD spectra of the assemblies near […] and the increase in ellipticity near 200 nm is consistent with the formation of β-strand-containing structures.
(§2) An end point was reached when the molar ratio of A1:H1 was 1:1. For example, further additions of the H1 peptide led to the appearance of disordered spectral features consistent with unbound, free H1 peptide (inset, FIG. 6a). The Fourier transform infrared (FT-IR) spectrum of the co-assemblies confirms the CD results and allows the β-structures to be classified as anti-parallel β-strands on the basis of the absorbances at 1618 cm-1 and 1679 cm-1 (FIG. 7) [Casal, H. L.; Kohler, U.; Mantsch, H. H., Biochim Biophys Acta 957:11-20 (1988)]. In summary, the individually disordered A1 and H1 peptides self-assemble into supramolecular structures comprised of anti-parallel β-strands.

Test [2] addresses B3. The test is described as follows: CD titration, H1 peptide added stepwise to A1 peptide. As for the experimental part: as §1, §2

Where no end group is shown, it is not given here.

T1 sequence (Q00987 210-304): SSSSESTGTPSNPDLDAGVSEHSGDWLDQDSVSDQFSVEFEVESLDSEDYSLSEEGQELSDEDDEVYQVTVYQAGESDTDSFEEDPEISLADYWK

For B1, in the test with His-tagged Hdm2 210-304, the binding result is recorded as “no binding (tested: not given)”.
Consider B2, for which the binding result with His-tagged Hdm2 210-304 is recorded as “binds”.
Take B3: in test [1], the “molar ratio A1:H1 at the end point of the titration” value was 1 mol A1 per mol H1.
Consider B4, for which, in the test with His-tagged Hdm2 210-304, the binding result is given as “binds”.
Consider B5, for which the binding result with His-tagged Hdm2 210-304 is “no binding (tested: not given)”.
For B6, the binding result in the test with His-tagged Hdm2 210-304 is “binds”.
On to B7, for which the binding result in test [2] is “binds”.
